A short description of data set [1]: in vitro stability in pooled human plasma. Particulars: 1 to 10 μM; GLP-1 7-36 amide at 4 h, analogs at 8 h.
Protocol: The stability test was carried out at Climax Laboratories, Inc. (San Jose, Calif.).
In data set [2] the target is T1, human GLP-1R (Homo sapiens, UniProt P43220).
T1 construct: host or cells: CHO-K1
Put plainly: cAMP receptor activation assay, human GLP-1R cloned into CHO cells (DiscoverX LeadHunter / cAMP Hunter). Particulars: for Selectivity Ratio GLP-1R vs GCGR: SR = GCGR EC50/GLP-1 EC50, 0.1% BSA; for EC50: cAMP, CHO cells, 0.1% BSA containing buffers, read-out: pEC50 (SE) hu GLP-1 (converted). The data set is classed as cell-based.
Protocol: (§1) Cellular assays were carried out using standard cellular assays (DiscoveRx, LeadHunter assays) using readout of cAMP stimulation or arrestin activation. Compounds were weighed precisely in an amount of approximately 1 mg and shipped to DiscoverX (Fremont, Calif.) for dilution and assay. […] Assays were carried out in the presence of 0.1% ovalbumin. […] Use of 0.1% ovalbumin can avoid this problem.
(§2) Assays were carried out in the presence of 0.1% ovalbumin. […] Use of 0.1% ovalbumin can avoid this problem.
(§3) Receptor activation assays were performed at DiscoverX laboratories (Fremont, Calif.) using human GLP-1R and GCGR cloned into Chinese Hamster Ovary (CHO) cells (LeadHunter Discovery Services; assay product 86-0007D cAMP Hunter™ using huGLP1R and huGCGR; whole cell cAMP accumulation assays; cell lines used were cAMP Hunter™ CHO-K1 GCGR Gs Cell Line, catalog 95-0042C2 and cAMP Hunter™ CHO-K1 GLP1 Gs Cell Line, catalog 95-0062C2; readout of accumulated cAMP was made using readout HitHunter cAMP XS+ assay). Cell lines are maintained at DiscoverX and were incubated with test agents for 30 m at 37° C. for accumulation of cAMP. […] Results described herein are from single assays performed on cells in duplicate and data were replotted in Prism 5 to provide pEC50 (SE) data.
(§4) In vitro data are presented as pEC50 (SE) determined in Prism 5 by nonlinear regression analysis of the raw fluorescence data normalized by corresponding response to internal standards (see Supporting Information for data plots).

In data set [3] the target is GCGR (Homo sapiens, UniProt P47871). Put plainly: cAMP receptor activation assay, human GCGR cloned into CHO cells (DiscoverX LeadHunter / cAMP Hunter). The format is cell-based. Further details: host or cells: CHO-K1. Particulars: cAMP, CHO cells, 0.1% BSA containing buffers; read-out: pEC50 (SE) huGCGR (converted).
Protocol: as §1, §2, §3, §4
The nature of data set [4]: pharmacokinetics in Gottingen minipigs (cassette sc dosing, 20 nmol/kg). The format is in vivo, Gottingen minipig. As to conditions: 20 nmol/kg sc; for plasma levels compared to liraglutide: analogue 2 at 4 h, 4 at 2-12 h, 5 at 2, 12, 24 h. From the text:
This study uses a cassette style dosing, to minimize large animal usage, but with injection subcutaneously at separate sites to preclude each compound's influencing uptake of another compound. A total of two male Gottingen minipigs were assigned to study. The animals were pair housed in pens on raised floor caging. The animals weighed between approximately 11-15 kg at transfer and approximately 5-8 months of age. The same animals were to be used for multiple phases, following a minimum 1-week washout period. To facilitate dosing and to ensure animal safety during the dosing procedure, animals were sedated with Telazol (IM, 4-6 mg/kg) prior to dosing. Dosing was subcutaneous via bolus injection between the skin and underlying layers of tissue in the ventral region of the animal. A total of […] sites were used for each phase with different compounds dosed at each of the 4 sites. Compounds are formulated in saline containing 0.2% BSA […] at pH 3.5. Each stock solution was diluted with normal saline (pH 7.4) to the required final conc and sterile filtered. Dosing is at 20 nmol/kg. Blood samples were collected pre-dose and at 2, 4, 6, 8, 12, 24, 36, 48, 72 and 96-hours post-dose. At each blood collection time point a 1 mL sample is taken from the jugular vein into K2EDTA tubes on ice before processing to plasma by centrifugation. The plasma samples containing the 4 test compounds were sent to Climax Labs for separation and quantitation by LC-MS/MS as noted below (2.5.3).
Analysis was carried out at Climax Laboratories (San Jose, Calif.) on an API-4000 Mass Spectrometer, ESI positive, MRM scan. Samples were loaded on a Shimadzu HPLC/CTC Autosampler with an ACE C4 column (2.1×50 mm, 5 μm). Elution was by gradient from aqueous 0.5% formic acid, 5 mM NH4OAc to 0.5% formic acid in CH3CN/H2O (9:1). […] After transfer to a 96 well plate, a 40 μL sample was injected and the individual compound peaks were quantitated with standard curves. […] The quantitation limit is 1-2 ng/mL, depending on analog structure.

For data set [5] the following is noted: clinical studies, cited from earlier work.
A short description of data set [6]: CMC of Polysorbate 20 in F58 buffer pH 7.7 with added ALT-801 by surface tensiometry. The format is physicochemical. From the text: CMC shifts are simply calculated as CMC in the presence of the ALT-801 less the CMC for the surfactant alone in solution.
Data set [7] deals with human glucagon-like peptide 1 receptor (GLP-1R) (human, UniProt P43220 24-463). Put plainly: cell-based or functional assay.
The target of data set [8] is human glucagon receptor (GCGR) (human, UniProt P47871 26-477). Put plainly: cell-based or functional assay.
In data set [9] the target is plasma proteins of monkey. Put plainly: ultracentrifugation of spiked plasma (15000 ng/mL), 37 C, 6 h, LC-MS of supernatant.
Data set [10] deals with plasma proteins of human. Described as above.
Data set [11] concerns the target plasma proteins of dog. Described as above.
For data set [12], the target named is plasma proteins of rat. Described as above.
Data set [13] concerns the target bovine serum albumin (BSA) (bovine, UniProt P02769 25-607). Put plainly: method not stated (data not shown).
Data set [14] has as its target plasma proteins of human. Put plainly: ultracentrifugation of spiked plasma (15000 ng/mL), 37 C, 6 h, LC-MS of supernatant; supernatant value BLQ, extrapolated.
Data set [15] has as its target plasma proteins of dog. The data set is described as above.

Values joined by “and” are separate entries in the source; they are usually repeats but may differ in a detail not shown here. Equal entries are not always repeated. “Also recorded” adds a separate entry of the source. Positions of bridges follow the written chain, without caps; N, C: chain ends. Non-standard residues stand in square brackets, D forms with d. No end group written: not given here. GC8 = D-glucoside-derived uronic acid with C8 alkyl chain; Aib = CC(C)(N)C(=O)O A value given as a limit tells only on which side of the number the result lay.

T1 sequence (P43220 24-463): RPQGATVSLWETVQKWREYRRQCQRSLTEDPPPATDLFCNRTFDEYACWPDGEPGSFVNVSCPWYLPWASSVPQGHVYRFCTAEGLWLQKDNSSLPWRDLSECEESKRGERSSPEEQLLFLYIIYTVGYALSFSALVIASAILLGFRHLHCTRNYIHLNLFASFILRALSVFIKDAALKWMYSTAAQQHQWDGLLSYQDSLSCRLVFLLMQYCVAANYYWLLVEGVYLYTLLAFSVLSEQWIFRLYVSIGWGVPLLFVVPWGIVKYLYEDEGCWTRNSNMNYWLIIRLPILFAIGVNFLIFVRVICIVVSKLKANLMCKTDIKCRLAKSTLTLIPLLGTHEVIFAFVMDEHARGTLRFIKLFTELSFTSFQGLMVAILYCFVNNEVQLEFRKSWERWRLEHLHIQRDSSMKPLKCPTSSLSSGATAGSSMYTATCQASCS
human glucagon-like peptide 1 receptor (GLP-1R), sequence (P43220 24-463): as above
bovine serum albumin (BSA), sequence (P02769 25-607 limits assumed): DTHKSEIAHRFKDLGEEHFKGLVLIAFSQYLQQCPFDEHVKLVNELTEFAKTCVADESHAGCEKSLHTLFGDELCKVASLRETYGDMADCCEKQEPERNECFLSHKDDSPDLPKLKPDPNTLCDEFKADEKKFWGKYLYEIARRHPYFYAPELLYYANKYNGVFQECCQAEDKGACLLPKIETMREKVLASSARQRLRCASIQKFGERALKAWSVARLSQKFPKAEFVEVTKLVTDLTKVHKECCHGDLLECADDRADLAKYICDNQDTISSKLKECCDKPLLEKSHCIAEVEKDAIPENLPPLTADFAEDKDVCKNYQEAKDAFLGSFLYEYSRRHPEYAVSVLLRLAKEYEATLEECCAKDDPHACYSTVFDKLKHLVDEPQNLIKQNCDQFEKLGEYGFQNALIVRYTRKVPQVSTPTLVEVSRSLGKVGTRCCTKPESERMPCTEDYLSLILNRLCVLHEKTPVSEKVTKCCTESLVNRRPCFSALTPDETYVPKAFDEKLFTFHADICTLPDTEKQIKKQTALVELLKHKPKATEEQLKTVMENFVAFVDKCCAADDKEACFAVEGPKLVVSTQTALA

With `CC[C@H](C)[C@H](NC(=O)[C@H](Cc1ccccc1)NC(=O)[C@H](CCC(=O)O)NC(=O)[C@H](CCCCN)NC(=O)[C@H](C)NC(=O)[C@H](C)NC(=O)[C@H](CCC(N)=O)NC(=O)CNC(=O)[C@H](CCC(=O)O)NC(=O)[C@H](CC(C)C)NC(=O)[C@H](Cc1ccc(O)cc1)NC(=O)[C@H](CO)NC(=O)[C@H](CO)NC(=O)[C@@H](NC(=O)[C@H](CC(=O)O)NC(=O)[C@H](CO)NC(=O)[C@@H](NC(=O)[C@H](Cc1ccccc1)NC(=O)[C@@H](NC(=O)CNC(=O)[C@H](CCC(=O)O)NC(=O)[C@H](C)NC(=O)[C@@H](N)Cc1c[nH]cn1)[C@@H](C)O)[C@@H](C)O)C(C)C)C(=O)N[C@@H](C)C(=O)N[C@@H](Cc1c[nH]c2ccccc12)C(=O)N[C@@H](CC(C)C)C(=O)N[C@H](C(=O)N[C@@H](CCCCN)C(=O)NCC(=O)N[C@@H](CCCNC(=N)N)C(N)=O)C(C)C` [GLP-1 7-36 amide], the “stability in pooled human plasma (compound level remaining)” value in data set [1] is recorded as “rapidly destroyed to below quantitation limit; also recorded: rapid destruction”.

As for `CCCCCCCCCCO[C@@H]1O[C@H](C(=O)NCCCC[C@H](NC(=O)[C@@H](NC(=O)[C@H](Cc2ccccc2)NC(=O)[C@H](CCC(=O)O)NC(=O)[C@@H]2CCCCNC(=O)CC[C@H](NC(=O)[C@H](CC(=O)O)NC(=O)[C@H](CC(C)C)NC(=O)[C@H](Cc3ccc(O)cc3)NC(=O)[C@H](CCCCN)NC(=O)[C@H](CO)NC(=O)[C@H](Cc3ccc(O)cc3)NC(=O)[C@H](CC(=O)O)NC(=O)[C@H](CO)NC(=O)[C@@H](NC(=O)[C@H](Cc3ccccc3)NC(=O)[C@@H](NC(=O)CNC(=O)[C@H](CCC(N)=O)NC(=O)C(C)(C)NC(=O)[C@@H](N)Cc3c[nH]cn3)[C@@H](C)O)[C@@H](C)O)C(=O)N[C@@H](CCC(N)=O)C(=O)N[C@@H](C)C(=O)N[C@@H](C)C(=O)N2)[C@@H](C)CC)C(=O)N[C@@H](Cc2c[nH]c3ccccc23)C(=O)N[C@@H](CC(C)C)C(=O)N[C@@H](CC(C)C)C(=O)N[C@@H](CCC(N)=O)C(=O)N[C@H](C(N)=O)[C@@H](C)O)[C@@H](O)[C@H](O)[C@H]1O` [analogue 2], in data set [2], the “Selectivity Ratio GLP-1R vs GCGR” value was determined as 2 and the EC50 is 0.0126 nM. In addition, in [3], the EC50 is 0.02 nM. Further, the “plasma levels compared to liraglutide” value in data set [4] was “Significantly higher plasma levels”.

For `CCCCCCCCCCCCCCO[C@@H]1O[C@H](C(=O)NCCCC[C@H](NC(=O)[C@@H](NC(=O)[C@H](Cc2ccccc2)NC(=O)[C@H](CCC(=O)O)NC(=O)[C@@H]2CCCCNC(=O)CC[C@H](NC(=O)[C@H](CC(=O)O)NC(=O)[C@H](CC(C)C)NC(=O)[C@H](Cc3ccc(O)cc3)NC(=O)[C@H](CCCCN)NC(=O)[C@H](CO)NC(=O)[C@H](Cc3ccc(O)cc3)NC(=O)[C@H](CC(=O)O)NC(=O)[C@H](CO)NC(=O)[C@@H](NC(=O)[C@H](Cc3ccccc3)NC(=O)[C@@H](NC(=O)CNC(=O)[C@H](CCC(N)=O)NC(=O)C(C)(C)NC(=O)[C@@H](N)Cc3c[nH]cn3)[C@@H](C)O)[C@@H](C)O)C(=O)N[C@@H](CCC(N)=O)C(=O)N[C@@H](C)C(=O)N[C@@H](C)C(=O)N2)[C@@H](C)CC)C(=O)N[C@@H](Cc2c[nH]c3ccccc23)C(=O)N[C@@H](CC(C)C)C(=O)N[C@@H](CC(C)C)C(=O)N[C@@H](CCC(N)=O)C(=O)N[C@H](C(N)=O)[C@@H](C)O)[C@@H](O)[C@H](O)[C@H]1O` [analogue 4], in [2], the “Selectivity Ratio GLP-1R vs GCGR” value turned out to be 2 and the EC50 is 0.0158 nM. Further, the EC50 in [3] was 0.0302 nM. Further, in [4], the “Cmax and PK profiles” value is “optimal”; the “plasma levels compared to liraglutide” value is reported as “Significantly higher plasma levels”.

Consider `CCCCCCCCCCCCCCCC(=O)N[C@@H](CCC(=O)NCCCC[C@H](NC(=O)[C@H](CC(=O)O)NC(=O)[C@H](CO)NC(=O)[C@@H](NC(=O)[C@H](Cc1ccccc1)NC(=O)[C@@H](NC(=O)CNC(=O)[C@H](CCC(N)=O)NC(=O)[C@H](CO)NC(=O)[C@@H](N)Cc1c[nH]cn1)[C@@H](C)O)[C@@H](C)O)C(=O)N[C@@H](CO)C(=O)N[C@@H](CCC(=O)O)C(=O)N[C@@H](Cc1ccc(O)cc1)C(=O)N[C@@H](CC(C)C)C(=O)N[C@@H](CC(=O)O)C(=O)N[C@@H](CO)C(=O)N[C@@H](CCC(=O)O)C(=O)N[C@@H](CCCNC(=N)N)C(=O)N[C@@H](C)C(=O)N[C@@H](CCCNC(=N)N)C(=O)N[C@@H](CC(=O)O)C(=O)N[C@@H](Cc1ccccc1)C(=O)N[C@H](C(=O)N[C@@H](C)C(=O)N[C@@H](Cc1c[nH]c2ccccc12)C(=O)N[C@@H](CC(C)C)C(=O)N[C@@H](CCC(=O)O)C(=O)N[C@@H](C)C(=O)NCC(=O)NCC(=O)O)C(C)C)C(=O)O` [cotadutide], for which, in [5] (6 weeks), the “reduction in liver fat content” value is 39%. Moreover, the “weight loss over 26 weeks” value in data set [5] is listed as 5.4%.

As for Polysorbate 20, the “Polysorbate 20 CMC Value, No ALT-801, Average” value in [6] is 0.722 mg/mL. In data set [6] (Test # 1 and 2), the “Polysorbate 20 CMC Value, No ALT-801” value was 0.721 mg/mL and 0.722 mg/mL.

H[Aib]QGTFTSDYSKYLDEQAAKEFIK(GC8)WLLQT-NH2 (lactam 16-20) [Analogue 1 (SEQ ID NO: 12)]: the “EC50 (pM) hGLP-1R, cAMP accumulation, 0.1% BSA” value in data set [7] was found to be 8 pM. Further, in data set [8], the “EC50 (pM) hGCGR, cAMP accumulation, 0.1% BSA” value came to 20 pM.

B1: EU-A1873 (SEQ ID NO: 1) (peptide)
peptide: HXQGTFTSDYSKYLDEKAAKEFIQWLLQT
modifications: Aib at 2; side chain lactam between Glu16 and Lys20; Lys17 acylated with Z17CO2H / GC18c (1-(17-carboxyheptadecyloxy) beta-D-glucuronyl); C-terminal amide (NH2)
notes: Synthetic 29-residue peptide amide; also called ALT-801; analogue 17
Regarding B1, the Percentage of ALT-801 Bound is 100% in data set [9]; 99.7% in data set [10]; 99.7% and 99.8% in data set [11]; 99.7% and 99.8% in data set [12]; 99.9% in data set [14]; 99.9% in [15]. Also, the Percentage of ALT-801 Bound, Mean in data set [9] stood at 100%; in data set [10] it was 99.8%; in data set [11], 99.8%; in data set [12], 99.8%. Moreover, the Percentage of ALT-801 Unbound, Mean in [9] came to 0.0487%; in data set [10] it was 0.213%; in [11], 0.205%; in data set [12], 0.241%. The Percentage of ALT-801 Unbound in data set [10] was 0.309%; in data set [11] it was 0.265% and 0.223%; in data set [12], 0.334% and 0.204% and 0.184%; in data set [14] it was 0.117%; in [15], 0.126%. Also, in [13], the “percent bound to BSA” value is above 99%.

The record behind these values is patent US20210290732A1, “GLP-1R and GCGR Agonists, Formulations, and Methods of Use” (Spitfire Pharma LLC, priority 2020, published 2021).
